Results on 1 protein are retold here after paper PMC7251641.

Substrate in this data set: Nc1ncnc2c1ncn2[C@@H]1O[C@H](COP(=O)(O)OP(=O)(O)OP(=O)(O)O)[C@@H](O)[C@H]1O
The data set can be described thus: real-time fluorescent phosphate-release ATPase assay. It is filed as biochemical, Saccharomyces cerevisiae. The conditions noted are these: nucleosome-stimulated, 15 nM nucleosomes, 23 °C.

B1: SWI/SNF (Saccharomyces cerevisiae S288C) (protein)
chain: MNIPQRQFSNEEVNRCYLRWQHLRNEHGMNAPSVPEFIYLTKVLQFAAKQRQELQMQRQQQGISGSQQNIVPNSSDQAELPNNASSHISASASPHLAPNMQLNGNETFSTSAHQSPIMQTQMPLNSNGGNNMLPQRQSSVGSLNATNFSPTPANNGENAAEKPDNSNHNNLNLNNSELQPQNRSLQEHNIQDSNVMPGSQINSPMPQQAQMQQAQFQAQQAQQAQQAQQAQQAQARLQQGRRLPMTMFTAEQSELLKAQITSLKCLVNRKPIPFEFQAVIQKSINHPPDFKRMLLSLSEFARRRQPTDQNNQSNLNGGNNTQQPGTNSHYNNTNTDNVSGLTRNAPLDSKDENFASVSPAGPSSVHNAKNGTLDKNSQTVSGTPITQTESKKEENETISNVAKTAPNSNKTHTEQNNPPKPQKPVPLNVLQDQYKEGIKVVDIDDPDMMVDSFTMPNISHSNIDYQTLLANSDHAKFTIEPGVLPVGIDTHTATDIYQTLIALNLDTTVNDCLDKLLNDECTESTRENALYDYYALQLLPLQKAVRGHVLQFEWHQNSLLTNTHPNFLSKIRNINVQDALLTNQLYKNHELLKLERKKTEAVARLKSMNKSAINQYNRRQDKKNKRLKFGHRLIATHTNLERDEQKRAEKKAKERLQALKANDEEAYIKLLDQTKDTRITHLLRQTNAFLDSLTRAVKDQQKYTKEMIDSHIKEASEEVDDLSMVPKMKDEEYDDDDDNSNVDYYNVAHRIKEDIKKQPSILVGGTLKDYQIKGLQWMVSLFNNHLNGILADEMGLGKTIQTISLLTYLYEMKNIRGPYLVIVPLSTLSNWSSEFAKWAPTLRTISFKGSPNERKAKQAKIRAGEFDVVLTTFEYIIKERALLSKVKWVHMIIDEGHRMKNAQSKLSLTLNTHYHADYRLILTGTPLQNNLPELWALLNFVLPKIFNSVKSFDEWFNTPFANTGGQDKIELSEEETLLVIRRLHKVLRPFLLRRLKKDVEKELPDKVEKVVKCKMSALQQIMYQQMLKYRRLFIGDQNNKKMVGLRGFNNQIMQLKKICNHPFVFEEVEDQINPTRETNDDIWRVAGKFELLDRILPKLKATGHRVLIFFQMTQIMDIMEDFLRYINIKYLRLDGHTKSDERSELLRLFNAPDSEYLCFILSTRAGGLGLNLQTADTVIIFDTDWNPHQDLQAQDRAHRIGQKNEVRILRLITTNSVEEVILERAYKKLDIDGKVIQAGKFDNKSTSEEQEALLRSLLDAEEERRKKRESGVEEEEELKDSEINEILARNDEEMAVLTRMDEDRSKKEEELGVKSRLLEKSELPDIYSRDIGAELKREESESAAVYNGRGARERKTATYNDNMSEEQWLRQFEVSDDEKNDKQARKQRTKKEDKSEAIDGNGEIKGENIDADNDGPRINNISAEDRADTDLAMNDDDFLSKKRKAGRPRGRPKKVKLEGSENSEPPALESSPVTGDNSPSEDFMDIPKPRTAGKTSVKSARTSTRGRGRGRGRGRGRGRGRGRPPKARNGLDYVRTPAAATSPIDIREKVAKQALDLYHFALNYENEAGRKLSDIFLSKPSKALYPDYYMIIKYPVAFDNINTHIETLAYNSLKETLQDFHLIFSNARIYNTEGSVVYEDSLELEKVVTKKYCEIMGDNSQLDFTEFDEQYGTRPLVLPPVVTSSVAESFTDEADSSMTEASV
As for B1, the Michaelis constant (Km) turned out to be 80.5 µM.
